From patent publication US20250320312A1 (OXITOPE PHARMA B V, published 2025)
Residue numbers refer to the chain shown, from its start.

T1: Peptide 8: Biotin-AEAAAKEAAAKEAAAKEAAAKAAA-Tyr-acid (N-terminal biotin; C-terminal acid)
T1 construct: Control peptide without PC
T1 peptide: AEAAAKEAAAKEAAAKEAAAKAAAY

T2: Peptide 4: Biotin-AGGGGSGGGGSGGGGSAAA-Tyr-acid (N-terminal biotin; C-terminal acid)
T2 construct: Control peptide without PC
T2 peptide: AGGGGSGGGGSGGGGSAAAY

B1: PcOxP_DB02_F09 (scFv, V domains shown)
VH: EVQLLESGGGLVQPGGSLRLSCAASGFQFSDFYMEWVRQAPGKGLEWVAASRNKGNSYTTAYADSVKGRFTISRDNSKNTLYLQMNSLRAEDTAVYYCARDYYGSSYWYFDVWGQGTLVTVSS
VL: DIVMTQSPDSLAVSLGERATINCTASESLYSSKHKVHYLAWYQQKPGQPPKLLIYGASNRYSGVPDRFSGSGSGTDFTLTISSLQAEDVAVYYCAQFYSYPLTFGGGTKVEIK
notes: scFv in periplasmic extract
B2: PcOxP_DB02_F10 (scFv, V domains shown)
VH: B1 VH with Q28T, F32Q, G55A, S57D, A61E
VL: B1 VL with A25S, E27Q, L29V, Y30L, K35N, V36K, H37N, S62W
notes: scFv in periplasmic extract
B3: PcOxP_DB02_F11 (scFv, V domains shown)
VH: B1 VH with F27T, Q28T, G55Y, S57D, A61E
VL: B1 VL with S62P
notes: scFv in periplasmic extract
B4: PcOxP_DB02_G02 (scFv, V domains shown)
VH: B1 VH with Q28G, G55A, S57D, A61E
VL: B1 VL
notes: scFv in periplasmic extract
B5: PcOxP_DB02_G04 (scFv, V domains shown)
VH: B1 VH with Q28T, F32Y, N53W, G55A, S57D, A61E
VL: B1 VL with T24K, E27Q, L29V, Y30L, S31Y, H34N, V36K, Y61Q, S62I, S99V
notes: scFv in periplasmic extract
B6: PcOxP_DB02_G05 (scFv, V domains shown)
VH: B1 VH with Q28T, G55A, S57D, A61E, Y107H
VL: B1 VL with V36L, S62I, A95G
notes: scFv in periplasmic extract
B7: PcOxP_DB02_H04 (scFv, V domains shown)
VH: B1 VH with Q28T, F32E, G55A, S57D, A61E
VL: B1 VL with H37V, S62I, S99F
notes: scFv in periplasmic extract
B8: PcOxP_DB02_H05 (scFv, V domains shown)
VH: B1 VH with Q28T, G55A, S57D, A61E, V112P
VL: B1 VL with S62L
notes: scFv in periplasmic extract
B9: PcOxP_DB02_H06 (scFv, V domains shown)
VH: B1 VH with Q28T, F32Q, G55A, S57D, A61E
VL: B1 VL with A25S, H34N, H37N, S62I, S99F
notes: scFv in periplasmic extract
B10: PcOxP_DB02_H07 (scFv, V domains shown)
VH: B1 VH with Q28T, D31S, F32Y, G55A, S57D, A61E
VL: B1 VL with S62N, S99T
notes: scFv in periplasmic extract
B11: PcOxP_DB02_H08 (scFv, V domains shown)
VH: B1 VH with Q28T, F32A, G55A, S57D, A61E, S106H
VL: B1 VL with A25S, E27Q, K35N, V36K, S62I
notes: scFv in periplasmic extract
B12: PcOxP_DB02_H09 (scFv, V domains shown)
VH: B1 VH with Q28T, D31S, F32Y, G55A, S57D, T60Y, A61E, G104E
VL: B1 VL with S62I
notes: scFv in periplasmic extract
B13: PcOxP_DB03_A04 (scFv, V domains shown)
VH: B1 VH with F27D, Q28T, G55A, S57D, T59S, A61E
VL: B1 VL with T24E, S62I
notes: scFv in periplasmic extract
B14: PcOxP_DB03_A05 (scFv, V domains shown)
VH: B1 VH with Q28T, D31E, G55A, S57D, A61E
VL: B1 VL with Y61A, S62I, S99F
notes: scFv in periplasmic extract
B15: PcOxP_DB03_A06 (scFv, V domains shown)
VH: B1 VH with Q28T, D31S, F32Y, N53S, G55A, S57D, A61E, S106Q
VL: B1 VL with S32N, S62I
notes: scFv in periplasmic extract

Each binder was assayed against Peptide 1: Biotin-…-[Tyr(PC)]-acid (assay: scFv ELISA).

Binder	OD450 [OD450]
B1	0.39
B2	0.51
B3	0.23
B4	1.01
B5	0.32
B6	1.49
B7	0.22
B8	0.2
B9	0.92
B10	0.56
B11	0.4
B12	0.25
B13	0.19
B14	0.93
B15	0.99

The binders below were run against BSA (UniProt P02769) (assay: scFv ELISA).
Chain of BSA (P02769 25-607 limits assumed): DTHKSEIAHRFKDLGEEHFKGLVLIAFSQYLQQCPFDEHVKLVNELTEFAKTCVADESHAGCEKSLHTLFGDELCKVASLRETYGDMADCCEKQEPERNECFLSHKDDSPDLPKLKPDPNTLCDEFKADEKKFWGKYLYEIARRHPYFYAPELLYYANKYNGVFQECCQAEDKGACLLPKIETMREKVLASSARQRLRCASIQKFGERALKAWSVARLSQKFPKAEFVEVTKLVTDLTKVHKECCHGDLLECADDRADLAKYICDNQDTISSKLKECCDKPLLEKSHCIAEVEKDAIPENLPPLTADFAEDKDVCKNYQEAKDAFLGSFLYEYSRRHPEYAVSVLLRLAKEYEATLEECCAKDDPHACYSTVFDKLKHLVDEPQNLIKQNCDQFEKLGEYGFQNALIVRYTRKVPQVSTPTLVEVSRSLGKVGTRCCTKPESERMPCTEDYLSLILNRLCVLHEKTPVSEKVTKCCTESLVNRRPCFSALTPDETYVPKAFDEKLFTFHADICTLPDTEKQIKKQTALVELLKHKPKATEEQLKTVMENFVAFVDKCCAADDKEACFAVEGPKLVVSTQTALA

Binder	OD450 [OD450]
B1	0.08
B2	0.09
B3	0.08
B4	0.06
B5	0.11
B6	0.11
B7	0.06
B8	0.09
B9	0.07
B10	0.07
B11	0.07
B12	0.07
B13	0.06
B14	0.06
B15	0.08

Each binder was assayed against Peptide 5: Biotin-…-[Tyr(PC)]-acid (assay: scFv ELISA).

Binder	OD450 [OD450]
B1	0.93
B2	1.2
B3	0.66
B4	1.13
B5	0.7
B6	1.8
B7	0.2
B8	0.44
B9	1.04
B10	0.88
B11	1.34
B12	0.58
B13	0.47
B14	0.78
B15	1.07

Target: T1, Peptide 8: …
Experiment: scFv ELISA
Outline: (§1)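 Bound scFv was read as OD450 after HRP–anti-V5 detection, TMB development and HCl stop. PPE with BSA was incubated 1 h at RT on BSA-blocked wells coated overnight at 4° C. with peptide, or on streptavidin wells loaded 1 h with biotinylated PC-peptides at 1 μg/mL.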

Binder	OD450 [OD450]
B1	0.04
B2	0.04
B3	0.04
B4	0.04
B5	0.05
B6	0.07
B7	0.04
B8	0.04
B9	0.05
B10	0.05
B11	0.06
B12	0.04
B13	0.04
B14	0.04
B15	0.05

Target: T2, Peptide 4: …
Experiment: scFv ELISA
Outline: as §1

Binder	OD450 [OD450]
B1	0.04
B2	0.05
B3	0.04
B4	0.04
B5	0.05
B6	0.05
B7	0.05
B8	0.04
B9	0.05
B10	0.04
B11	0.04
B12	0.04
B13	0.04
B14	0.04
B15	0.05
